A short description of this series: label from the status in PepcDB records.
Turning to “MKYIEPHFISFTQHTLKSQLIPKSFHGMKILQFSDLHLGYYFSLQHLSQVVSKINAVNPDIVLFTGDLIDNYQTYTDTPFVASILKNIQAPFGKFAIYGNHDHGGYGTEYYEHIMRESGFELLLNSKKRIRLMDNSEISIFGLDDILLGKPKIEKTLQHARQNTYNIVLVHEPDIAPQISKYPINLQLSGHSHGGQVQIPFLGAIITPSLAKDYIEGFYTMQDLTLYVNRGLGRTRVPFRFMSKPEITIFTLQHSLEHHHHHH”, the protein production entry is given as “failed”.

As for “MKYLAGIVTFNPNIERLDQNIRAIYPQVSHIYIVDNGSKNKEEISQLVADYNEEGHLTVDYLTENKGIAYALNCIGQFAVAQEFDWFLTLDQDSVVLGDLIDNYENYLHLPKVGMLSCLYQDMNRENLVMQEFDYKEIEECITSAALMKTSVFEETSGFAEEMFIDFVDSEMNYRLSEMGYKTYQVNFIGLLHEIGHSSRVKKFGHVFHVLNHSPFRKYYMIRNAIYIIKKYGKKKRYKYLVFMRNEFVRVLVAEEQKSKKIVAMIKGLKDGLLMKVDKYGKLEHHHHHH”, the protein production entry is reported as “not failed”.

With “MKYLHFTRPTIKVIFMINSIKTLLLIATLAILSACGWHFQQSVTMPSEWRTLALESDDSYNDFTVIMRRKLQENQVNVVNLEQNIPILRINKQITSDQVASIFKHGREAEKLLMLEVEATFRLANGESYPINAKVNRTFFDNARAALAKSEEREVIWNDMREQVARQLIVKIIALQNQIKRKLEHHHHHH”, the protein production entry is “failed”.

Consider “MKYMIPDEEFIRREGVPITKEEIRAVSIGKLNLNKDDVVVDVGCGSGGMTVEIAKRCKFVYAIDYLDGAIEVTKQNLAKFNIKNCQIIKGRAEDVLDKLEFNKAFIGGTKNIEKIIEILDKKKINHIVANTIVLENAAKIINEFESRGYNVDAVNVFISYAKKIPSGHMFLAKNPITIIKAVR”, for which the protein production result is “not failed”.

As for “MKYNKDGQTFLLVLDKGEDIVEVLTQFAMEQEMKFGSVSGIGACDNVTLIFYNLDTQKYESREVNEALELTSLLGNISHIDDKPFAHLHGTFGTRDFQTLSGHLTKAVVSATAEIVIQMTNLDVNRTHDEETGLNLLRP”, the protein production entry is “failed”.

As to “MKYSWNKTVFPIAAIFSFRLLGLFLLIPVFTLYATNLKGATPTLIGLALGSYGLAQGLLQIPFGMLSDKLGRKPMIAIGLLLFAGGSLLGAVTHSIAGMITARILQGAGAIGSVLIALLADLTLDEQRTKAMAIVGITIGTSFSLAMIISPALTHYYGLSGVFYLTAALAVLGIMILYLIIPNPSKEQFHADSEPSLSLIKPVVTDQHLQRLNFGIFCQHFILTATFFAIPMLLKYQIENGHLHQQWHFYLPLMLFSFILMVPFIIISERKKRLKTVFVISVLLTTFTQGLLVLASQNWYWFCILMFVYFVSFNVLEATLPSLVSKLASPGSKGTAMGIYSTSQFLGIFFGGSLAGILYQWYDNQAIFLINMILSCLWFIISLSMKSNVYFSTLILPFTANNEESKLVVNQLLKVAGIKEVILSKDENTLYVRVDNEEYSTGSAEKILHQSTIYQ”, the protein production result was “failed”.

On to “MKYTIEEIRQMQEGQTFDCKSILIEPKHLATIIVAMANADGGMIAVGISDKTRRIEGVNQDKEHLNDILRTPLDFCVPSVSVTTDYVPCTDAEGRDNRVLLMHIPASPRLHANQADEVFWRVGDKSRKLTFDERLQLMYDKGERYYEDSTAYDATLDDIDMDAVKAYMKRIGYGKSAMEYLQENKGFVTYKGDVPQVSAACILLFGKHPQTFFPRARVRFIKYFGTEEKVGREMNVIKDVTFDGRILEQIQKTVEYLETQVKEHSYLGEDGIFKTDREYPKFVIQEMVVNSVCHRDYSIKGTEIQIKMFDDRLVFETPGKLPGIVRTDNIRHTHFSRNPKIAEFLKAYDYVKEFGEGVDRMCRELSALGVKEPQYNLVAFIMKATVCAKVLEERQGTNHFDQKRPESDQKSDQMRIILELIKSNPNISRTELSEKTGLHDSSVKRRLKTLVDEGLIQRVGPDKGGQWKVIGSLLEHHHHHH”, for which the protein production result was “not failed”.

For the sequence “MKYYDEVPIIRSVAAMLVVAIHTVNSIALSRGTFTSDGLGYVNQIARLGTPIFAVISAFLLTISVVNKGFNLDYFVKSRFSKIFIPYIIWTVFYLLYRAFYLHNLEDDGKLLNYFVYGKANFHLYFILTVIQFYFLFPLLQKFKKGWPIIIVYILATIANIIWIRMGPVSLGGGGVERFVNDKLFIMNWISFFMLGIVYAKFYNEIRILIFKHKAILSTIIGILFIDFLLSIDLDHLQSSITVSNMIYIPFFIVFLNYLYEHVKKNHTILKTLTLIGNYSMGIYLVHYVAIQFVKRLPIIEDIVPQSKFMGVFILTVAVSVLIVYLIGKIPYGNYIVPIPKKKATQTTDVDKKKVTQSKHTPNYNS”, the protein production result is “failed”.

Take “MLAAAVLPKLLRHMPLSMPMVFLGSGILAFTLLPELPDPDPVKYGDFTTHLTEVCVIISLMGAGLALDRPFRWRGWSTTWRLLGIVMPLCILVMTLLGLWVLGLGLAGAILVAGAIAPTDPVLASEVQVGKPADAEDDPDEDEVRFALTSEAGLNDGLAFPFVYLAILISLVGASPDAWLGEWVALDVLWRTVAGVLVGFGTGKLLSMFFFAAKGKTFRLSEHSEGFVALAATFLAYGAAEMVEGYGFVAVFLCALTIRSAEHNHSYHQVLHSYVEQLERLMTVVILVLLGGAIARGLLEGIGWTEVLVALAFLLLVRPLAGWLGLMGGKTGPRERLAISYFGIRGIGSLFYVAYALTHGNFDAEARELWALIGLVVALSIVVHGATTAPLMNRLDRLRVAEARKQHGDEGRAPTTAV”: the protein production entry is “failed”.

For “MLAAEANLELDRETIRRQLWQSEAPEKRAGSLRQLLARIEQSIPAALPPLLKATRTHIGLADGWEVDVHMLKQKGPLAAEDGDILNGELLESAKSPTQGAEDWLTFERQRVDELRAAHLTRLVETAEDRSDEEQVAFARRLLELDPASETAYRALMRTYVRMNDPAAARQTYLKCKSQLKDEFDAEPEESTTALARELGLIPAAQPAAAERPSAGPSGFADLLGQPRIIILPPESIFTDPLMERVGRALLEDVTIGLSQQRGFRVIAAHTSLEILSRSVDPARAVPRPLDLSFDYAVYVTIQGRDEDVYATCRLTRTTTSEVIWALELPLVMQKISESFAHLTRRIVSSLADTVERHELAMPIGDAPPSAYRLYLEGKRLIAQTDLQHLRQARKWFKSSLNRYENFSAAHAGVSRALGMEWLIRGMQDTELLDEANGAARQAQQSDPNSGRAYRELGFVALYRRRFDESLDYFQQAQDLNPNDADILADYADALCHYGDFDKALDLNNAAFKLNPLPPDYYYWNRGGIHFDRGEYQQAIEALEPVKSKQATARLLAAAHAMAGDMKKAGGYASVVLDNFPDFRSEDIRHFVPDRDPRYTETLIHGLHLAGLP”, the protein production entry was “failed”.

For “MLAEAGTGTGVAAAASHDAPPKAVPRQLPAPPRITAFLSAFATPPPHCLRLNKSLNGLHNPVTLHVVCQYMLLRSVHGGRERYLNAHVSQGSWPVLVLNADFRPLSYYPLSLWSWQDAIKAVFLDRVNIVAHYDQAVRSPTLEMQLPSVVSLKSFVKPTTHPAFTRFNVFLRDRFACQYCGSPEDLTFDHIIPRSKGGQTTWENVVAACSPCNLRKGNLTPAQAKMFPRQSAFAPTVHQLHRNGRMFPPNYLHDSWLDYLYWDTELDP”, the protein production entry is “failed”.

For “MLAILIFSFLLVILVAGNNSSAVSGTIIGSKMMNKSLALAITAVGYIAGYLLEGRFLQHAVNELLPFEPEYVLYAIIASFVIFTIAFFVKVPISLTMALVGSAIGLSLKLGYSSDARFLTEVIIAWIAAPLISVGSSYVFNDRLSKMRHGDIWRYASAIKVMPIVTAIFTAFTLGANTIGFLGDISGTAVFNEILISIGSVIGTFFFSSGIMKSVSQNMYMMKYTNAFSSQLISALVVEVSTLFSIPMSNTQTLTSAVLGAGLSYRAKAIYLKPFLYIVIMWILSPLIGMAFTYALA”, the protein production result is “failed”.

With “MLAKIIMKNFKSFKNETVIDFTRINYKFLENNVSNNGVLKGVAFYGANASGKSNVLWAIRFLLDELFGEEKNPVTFMKCLFSDEPEFSLQYFFVIESREIHYLIDFHTEKGIINEELYLDRKLLLQRMGSTAKSGITEKKVYTDLNNKVLFLRTVYFNTGFSGDDKDNNANNNILRQWFDYMQNSIYVNPFLHRGIAYGKQDVVLNKYLENEGVKEINRFFTKYNFEYTLDYLNERKVKDVTEIVNDDNIKLVFFNRKGVNVPIPYVLESHGNQNLLNILPCFLRVVQNSGMLLVDEFSGGLHNELERLLVNYFFLEHHHHHH”, the protein production entry was “failed”.

On to “MLAKSLGWLLAVSRRNYCMGSRTALASRPWSKHLADPQIDPTAYVHSFANVVGDVRIQPGVSVAPGSSIRADEGTPFWIGGNVLIQHGVVIHGLETGRVLGDDDQEYSVWIGPGTCVAHLALVHGPVYLGANCFIGFRSTVLNARVGDGAVVMMHSLVQDVEIPPNKLVPSGAMITQQHQADSLPDVQAGDRHFVQQIAAMHGQSASPTQGTDPTVCVLPESLPAVTPVTETPYINSIDNMSINSDITNQIRSLLAQGYGIGAEHANERRFKTKSWQSCGTADGFRPDQVIATVEGWLQEFAGEYVRLIGIDQGAKRRVVEVIIQRPGDVPGSPSRGTTTTKALSSGGSGRSAVAHQTGNLAGDSANQLRALLHQGYKIGLEYASARRFKTGSWLTGGTIGSHREGEALQELNRFLADHTNEYVRIIGIDPAGKRRVAEIVVHRPNGNGNGKPSSSSSSVGYKSAPVSSAGGSSAGGLTPEVIATVRGLLANGHSIGTEHTDKRRFKAKSWDTCPTIDGGREAEVLAKLEACLADHAGEYVRIIGIDRVGKRRVLEQIIQRPGDNVVAGRSPSSSSASTSSSASSNGFGSGNGGGYSNSAVRLDNSVVTQVRSLLAQGYKIGTEHTDKRRFKAKSWQSCAPITSTHESEVLRALEGCLADHNGEYVRLLGIDPTAKRRVLETIIQRP”, for which the protein production result was “failed”.

Take “MLALPTTFAKSPIDNEASIEETTPKWSVNSPQGNFTTADIDVRSGTWMNVDLNPDGKTIIFDLLGDIYTMPASGGEATPLMTDIAWQMQPRFSPDGKYIAFTSDEDGGDNLWIMKADGSEAKAVTTETFRLLNSPAWSPDGNYIVGRKHYTGTRSLGAGEVWMYHKSGGNGVMLTKRPNEQKDLGEPAFSHDGKYVYFSQDATPGKSFHYSKDSEKGIYKIKRLELETGEIKVVVSGKGGAIRPTLSPDGKYLAFISRDDFQSNLYLYNLKNGEQSKVYDGLDRDMQETWAIHGVYPTMAWTPDSEGLVFWSGGKINKLSLDSKKAKVIDFHVKTTKKIQTAVRFPQDLDQKSFDTKMLRDVKVSPNGKLAVYESMGHLYTKSLPKGKPKRLTKQKSQFELNPSFSRDGKKIVYVSWDDKNLGQVRVVSSRGGKGKTITREPGKYVEPSFSPDGKAVVYRKVTGGFITDPTWGLNPGVYAVSVKGGKAKLVTEEGVQPHFGARNDRIYVTRDGETPHISRIDIDGQHDTKLYQGKFASEYRVSPDGNYLAFAERFKVFVTPFVERGDVIDIGPKAENLPVEQLSMRAGEGINWNGKSNELYWSLGADLYQASIKGLFDITAKTTDENDDGSEPETSASTVVNDINVINLSYKQKVDIPSGHVAFVGGKVITMEGEQVIDNGVVLVEGNKIKAVGTKGQVNIPSDATIIDITGKTVMPGLIDAHAHGPQGSNEIIPQQNWKNYAGLALGVTTIHDPSNDTTEFFAASEMQKAGKIVAARLFSTGTILYGATIPGYTSHVDSLDDAKFHVERLKAAGAFSVKSYNQPRRNQRQQFIQAARELEMMVVPEGGSLLQHNLTMVVDGHTTLEHSISTAKIYADIKQLWSQSDMAYTPTMGVAYGGISGENYWYDTTNVWEHPRLSQYVPSEFLDPRSMRRPKAPLHHYNHFNVAKVAKEMQDLGVVVNAGGHGQREGLAMHWEMWMMAQGGMSPLQAIRTATISPAKSLGLDKDLGSLTVGKLADMIVIDGDITQDIRLSDKVTHTMINGRLYNADTMNEIGNYDNKREKFYFENK”: the protein production entry is recorded as “failed”.

The record behind these values is a protein production outcome set (Wang et al. 2014).
